Results from the domain aggregation screens of Martell et al. (2025).

Test: soluble fraction after stress (log2 fold change); higher = more stays soluble; pooled small domains, quantitative proteomics
Conditions: stress: 50 degC
Outline: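 Each library was heated to 50°C as a stress step. The libraries, made up of small protein domains, were pooled and analysed at high throughput by quantitative proteomics. The reported value is the base-two logarithm of the fold change in each protein's soluble amount after stress, taken as a measure of aggregation propensity. The higher the value, the more protein stays in solution.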

Row | Sequence | soluble fraction (log2)
1 | HMQIAEAESLGQRLLQQSINNIVGRDEAITEERLNRVLSQYSLTGRDELMAQIGLGNRNSSLVAKAMYDI | 0.0632
2 | HMGKNIQAIRYKNNMTQDQVVAKLNLMGISITKSTYAKLETNRMNIKASELVALAKLFHTDINAFFSG | -3.24
3 | HMQDTQAEEGETLLDALRRIHPESSTGTLRRMLTQGRVQLDGDSVHAAKTVLSAGQRVEVVAR | 0.0446
4 | HMVPEEEATKISVQNVGASDYNFTVKGVQANDPTLTLVRGKTYEFDVTSLGHPFWIKTQKVTGSSSQY | 0.1
5 | HMINDKLQHLFSLFPAMDKELKRKGITRQILWVEYKKQYPLGFGRSQFNSYFAAWKAQVSPS | -1.52
6 | HMAQVSDTGELEGVVDGVLAANAKSVADFQAGKENAFQYLIGQVMKETKGKANPEVVATLLRTKLS | -0.382
7 | HMFKITNTLNKTAEVYLTIPENKKGKGKIMISVNGAFHELEAMTENDKIQSGAVVKVVRIENDNILIVET | -1.88
8 | HMTGDIIKQERKKKNLTQIELAKKVGISRNALINYEAGTRIPPISVQLKLADVLGIDILDLK | -0.299
9 | HMAPRQDIAYYTVKPGDTVLAIAEKFGLQPETLMWSNSIIEQNPDRLSIGDELRILPVDGVLHVVK | 0.0612
10 | HMRDITAQSNASELYFEERDLEAFIEKLERLYPEIRYVNRLMIHSWGQQVVRFFDPDGNLIEVGTP | -0.145
11 | HMTPFLVRVDISDLNIRTGAGTNYSRTGQYTGKGIFTILEVKSGQGSDAGWGRLKSGAGWISLDYTTR | -2.82
12 | HMPLTKKLETLFSLFPKYEKELKKKGVTRIHVWANYKEEYPDGIGRSQFIHYYSFWKKQVSP | -0.118
13 | HMDDTPLNNVIKKIAALPENITLADKSAVLSAWEAYQALSVNLKAQVSNSELLIKAYETILQLEGEDQIK | 0.235
14 | HMHNISQTGRRIAGMTQERWAEALDISVESVRLYESGRGMPSDDVATRMVEVSGAPVLGYWH | -0.407
15 | HMPVRIYEISKKLGLENKEVLATAKSLGIAAAKVPSSSLDKITAEYLEEEILKSHPEVAARLK | 0.329
16 | HMQPMIQIHTLANHAPVALHIKRNTQRNIIIRARDASSLNLSIPKWFSPAQLQNWLRDNEATLIRILQQAP | -2.49
17 | HMVTTTEAAKMLLVNAGHDVIKDGLTGASWASNTMKLADADGLLASVATKPNDALPRQYAAQMIYN | 0.076
18 | HMDGYTVYTNWGSDTNVARSDQQIQSQIPQLSGATIVGVWTKPIATGGTSYKIRYRTNSGAFTEIDVDQ | -0.105
19 | HMLKGTVKWFNESKGFGFIEQEEGKDVFVHYSAITGSGFKTLNEGDKVQFEIVDGPKGPAAANVSK | -0.0666
20 | HMAENMNAALRVSSLINQIGTVNAKAKDRIESARKAYDALSEAQKAYVANLTTLETAETSLSKL | 0.179
21 | HMFEDEYLETMYAFYETDPQALVRTGDLASSLKVSPASATEMVQRLASKGFVDYIPYKGASLTELGLAM | -0.184
22 | HMLFVKLSDAQRSMFGAKLARDARIQSEYAQKLPSENYEVFGKALADMLLDETHFKTFYPLLVEYGYTQPK | -0.406
23 | HMDDYRIEDMMTVVEEQVIRQKETNLSWFFKRAGSLNEIITIFLAALELIKVHRVYVKQEHNFDDIILRKE | 0.133
24 | HMVMPTGRVRYYDAEKGFGFLSKDSGGDDVYVRSSALPAGVTSLKRGQKVEFGIIDGKRGEQALSVHLL | -0.0933
25 | HMKAILHQESRSGFANATVIGGLDKFLDTNWNQLSKYIKKIETPYSDRSLEDRKIWISTILGILSTEI | 0.45
26 | HMLLPGEELRVMIIQEGKEYGQGVGYLDDGTMVVVEDGQRALNRTENVVVTKVLQTTAGRMIFAK | -0.631
27 | HMELEENTERVLNILIENDIISENDIAEKLEVKINGARKALYKLKEVGFVEYTKERDEEKKWWYIYFWKLN | -0.0109
28 | HMSNNLAYSQFLDRVKNKEIRKVEIRGQSIVGYTSNNETFKTYAPLNDPKMYDELLTNDVQVQVDPP | 0.0519

Row | Sequence | soluble fraction (log2)
29 | HMISSRDAAVIGLVENIQRAQLNAIDESSGFKHLMETYNLESKEIALLVGKSRSYVSNSLRLSK | -0.0196
30 | HMTGKVKWYDADKGFGFVTEDGGRDVYVRKSALPQGVETLKAGQRLEFGIAEGRRGPQALSVR | 0.0817
31 | HMAEVPSLIGKSLDAAKQAIIDAGFKVGSVSYDNSDSYGKGQVMWQQYEPSTKVKKGSSISIKVSKGS | 0.00591
32 | HMTSNKTVPYSELKGLISTGKIEYVGIGNTQIRAVSKSGAGIVTYTARRVIPDDTLIPELEKNGIAYGGI | -0.108
33 | HMKNNLKGSPIIIAGGYGVGSKENFNLLFDLAKVLNAEVGASRAAVDAGFVEHDRQIGQTGVTVRP | 0.0735
34 | HMESSYKGFILDIETRQFSPTLIQRRGIAINPSGIVETTTEFSFATQEKVLIEDLKLIIDELDLRADY | -4.07
35 | HMSNQLAVPDVTNMKANAAADRLRQQGLRVELKTESSNTVPRGMAIRTDPAASTMVARGGRVTLIISSGKG | -0.000921
36 | HMSSDLESVIGTHSQEANFALRSWGWIQPDETWKNLRPDQVSQILERANEFMAKAIESFANAQSE | -0.14
37 | HMNNISKKIKELREQNNITQNKLANDLFIKQQTVAQWENGSRALKADSIISLAKYFNVSTDYLLGLTEN | -0.339
38 | HMYVSGVPAITSIERVSTPGRRVYAGYTTVPKVIGGMGVSILTTSRGVMTDAEARRQKVGGELLAKV | -0.0341
39 | HMDAPQRVTYLLPHSRGEVVSWLHRQGEVVAQEYEAEGVRVVVDLRYAQIRQAAKQFDVLPAEG | -0.0612
40 | HMSLSASELDQLRMMTKVSHMYHTRGMVQIDIARSLGLSQARVSRLLSAAEDANIVRTVVVA | -0.306
41 | HMNYGDVIEGQIMHVDRDELLVDIGSKSEGIIPAREFSTLTDEERAALSVGDHVLVFVVQAENQEGQAV | 0.0712
42 | HMDQVYYDLKSLIELLPADQMEVLKMRYFEELSFKKIAQKIDVSINTALGRMRYALINLRALSKKHHID | -0.189
43 | HMHAGQIISQKIKESGISISHVAKHLKVQRATLYNLFEREVWPAHRLRTIEALLHIDLSDLYP | -1.62
44 | HMNAQLTTQEAADLLNVSRPHLVKLLEDGELPFLRTGKHRRVRLADLLQFKNAREQASVQAMDELSRQAQ | 0.154
45 | HMNYIGADAAKNMAAADAQVDTANASFSGANLGEKNGLSYYQVDFTANGREYHYAIDAMTGTVIESSSAAS | 0.124
46 | HMLSNKIEQLRKEKGYTFAKLSELSGISTGRLSDLATGKRNNPTMDTLIKLADALDVTLDELVGR | 0.14
47 | HMSEQSEALRTGLDQLPINQRTALTLFHLHELNQSEVAKIMNISVGAVESLLFRGRQKMKQLLTSD | -0.725
48 | HMDRNEFVSTLRAALTGAVSPAIVEDNVRYYQNYISQEIASGKSEKEVLDGLGDPRLIARTIIDT | 0.0674
49 | HMKTVLDSLLRILDSKELDIVVLRHIVGLTLTEIAKEKDMKKGTVFWMYNRAVKKLRLESERMGL | -2.11
50 | HMSSVEEILQTLGGRIRTQRLAQGISQQVLADRAGLSLGAVRQLEGSGQSGLDTLVRVLFVLGIVDEL | -2.21
51 | HMELVQIIGNNIRDLMTTRSVTITDLANYLNVSRQTLQNYLRGSNIIDSVKLVAVSDFFDVPVESLLQSK | -1.04
52 | HMKTLPADPTVKNFSYTVVDGEIYYRENSIMTQIELSDNAKGRVAGMVELRQIVNELIDQQLND | -0.896
53 | HMLTRSTVNVETGTAAIGLGKLYGVYDMSRKGLKYSFSVDSDAMTKVMEMLLPLGIKSLTVEPPS | -1.57
54 | HMEPLVSKVFQVSYQKTADLVALIKSEDSKLLSARGTLISDERTSQIFVQDTPTRLERISMIVNGL | -0.883
55 | HMNIKITKSKNSEHYSIIYNTKINGKRTSKIYENIGNFEKLKLRAGEQEPIEWLKNYVSELNKKQKEDT | 0.109
